Positions count from the first letter of the chain named.
How the values were obtained:
[1] = target: T1, LukD, F-component of LukED, USA300 TCH1516 strain (Staphylococcus aureus USA300 TCH1516, UniProt Q2FXB1 27-327); experiment: MSD solution equilibrium, Fab with biotinylated antigen (or ForteBio)
T1 sequence: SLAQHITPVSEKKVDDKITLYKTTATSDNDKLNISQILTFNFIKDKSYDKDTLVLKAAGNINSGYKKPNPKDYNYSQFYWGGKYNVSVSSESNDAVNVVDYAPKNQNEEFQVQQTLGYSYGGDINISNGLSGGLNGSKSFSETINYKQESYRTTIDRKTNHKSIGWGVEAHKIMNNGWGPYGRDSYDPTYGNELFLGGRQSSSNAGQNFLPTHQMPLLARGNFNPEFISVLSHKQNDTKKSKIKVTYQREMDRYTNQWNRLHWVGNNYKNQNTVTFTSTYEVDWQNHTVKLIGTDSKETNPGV

[2] = target: T2, HlgB, F-component of gamma-hemolysin, USA300 TCH1516 strain (Staphylococcus aureus USA300 TCH1516, UniProt P0A075 26-325); experiment: as above
T2 sequence: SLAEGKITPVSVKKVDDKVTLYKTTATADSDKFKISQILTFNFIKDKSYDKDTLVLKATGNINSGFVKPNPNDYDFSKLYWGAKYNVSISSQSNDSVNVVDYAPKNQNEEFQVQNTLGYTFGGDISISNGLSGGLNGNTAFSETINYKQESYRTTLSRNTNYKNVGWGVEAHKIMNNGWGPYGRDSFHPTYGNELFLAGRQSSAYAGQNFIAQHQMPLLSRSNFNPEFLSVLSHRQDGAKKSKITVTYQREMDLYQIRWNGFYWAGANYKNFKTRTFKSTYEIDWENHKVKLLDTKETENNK

[3] = target: T3, LukF, F-component of Panton Valentine leukocidin (LukSF), USA300 TCH1516 strain (Staphylococcus aureus USA300 TCH1516); experiment: as above
T3 chain: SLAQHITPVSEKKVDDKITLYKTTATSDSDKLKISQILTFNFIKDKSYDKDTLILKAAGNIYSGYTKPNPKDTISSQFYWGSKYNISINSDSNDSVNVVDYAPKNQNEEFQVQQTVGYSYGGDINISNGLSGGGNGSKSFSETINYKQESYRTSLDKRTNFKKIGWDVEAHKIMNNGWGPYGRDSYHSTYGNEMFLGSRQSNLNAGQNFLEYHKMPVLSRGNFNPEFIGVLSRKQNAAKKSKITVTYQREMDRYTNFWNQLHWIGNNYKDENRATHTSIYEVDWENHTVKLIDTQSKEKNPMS

[4] = target: T1, LukD, F-component of LukED, USA300 …; experiment: MSD solution equilibrium, Fab with biotinylated antigen
[5] = target: T3, LukF, F-component of Panton Valentine …; experiment: as above
[6] = target: T2, HlgB, F-component of gamma-hemolysin, …; experiment: as above

B1: AB-28 Fab fragment (Fab, V domains shown)
VH: QVQLQESGPGLVKPSETLSLTCAVSGYSISSGMGWGWIRQPPGKGLEWIGSIDQRGSTYYNPSLKSRVTISVDTSKNQFSLKLSSVTAADTAVYYCARDAGHGVDMDVWGKGTTVTVSS
VL: DIQMTQSPSSVSASVGDRVTITCRASQGISRWLAWYQQKPGKAPKLLIYAASSLQSGVPSRFSGSGSGTDFTLTISSLQPEDFATYYCQQGYVFPLTFGGGTKVEIK
[1]
  Kd: > 1000 pM
[2]
  Kd: < 10 pM
[3]
  Kd: > 100 pM

B2: AB-28-7 Fab (Fab, V domains shown)
VH: B1 VH with G36D, L46R, K65E, S66G, V68A
VL: B1 VL
[4]
  Kd: < 800 pM
[5]
  Kd: < 55 pM

B3: AB-28-6 Fab (Fab, V domains shown)
VH: B1 VH with K13R, G103A
VL: B1 VL
[4]
  Kd: < 800 pM
[5]
  Kd: < 55 pM

B4: AB-28-9 Fab (Fab, V domains shown)
VH: B1 VH with Q1E, K13R, G103A
VL: B1 VL
[4]
  Kd: < 800 pM
[5]
  Kd: < 55 pM

B5: AB-28-3 Fab (Fab, V domains shown)
VH: B1 VH with I52V, V104A
VL: B1 VL
[6]
  Kd: < 20 pM

B6: AB-28-8 Fab (Fab, V domains shown)
VH: B1 VH with G36D, S63P, K65E
VL: B1 VL
[4]
  Kd: < 800 pM
[5]
  Kd: < 55 pM
